Assay results from patent US20230381229A1 (ALPINE IMMUNE SCIENCES, INC., published 2023).

T1: TIGIT (human)
T1 chain: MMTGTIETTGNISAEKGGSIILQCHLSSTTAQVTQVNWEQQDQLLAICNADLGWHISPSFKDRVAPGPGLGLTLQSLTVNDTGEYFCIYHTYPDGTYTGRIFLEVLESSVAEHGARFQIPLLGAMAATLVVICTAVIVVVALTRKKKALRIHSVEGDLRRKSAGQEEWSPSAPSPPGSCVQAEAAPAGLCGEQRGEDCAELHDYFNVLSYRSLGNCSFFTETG


Target: T1, TIGIT
Test: cell-based or functional assay

Row | Binder | IL-2 luciferase reporter, Normalized Fold Change from CD155-ECD
1 | variant CD155 IgV-Fc P18S, Q32R, Q62K, R78G, L79P, F91S, T107A, R113W (Fc fusion) WPPPGTGDVVVQAPTQVSGFLGDSVTLPCYLRVPNMEVTHVSQLTWARHGESGSMAVFHQTKGPSYSESKRLEFVAAGPGAELRNASLRMSGLRVEDEGNYTCLFVAFPQGSWSVDIWLRVLGSGGGGSEPKSSDKTHTCPPCPAPEAEGAPSVFLFPPKPKDTLMISRTPEVTCVVVDVSHEDPEVKFNWYVDGVEVHNAKTKPREEQYNSTYRVVSVLTVLHQDWLNGKEYKCKVSNKALPAPIEKTISKAKGQPREPQVYTLPPSRDELTKNQVSLTCLVKGFYPSDIAVEWESNGQPENNYKTTPPVLDSDGSFFLYSKLTVDKSRWQQGNVFSCSVMHEALHNHYTQKSLSLSPGK | -2.2 fold
2 | variant CD155 IgV-Fc D8G, V9I, V11A, P18T, T26M, S52P, L79P, F91S, G92A, T107L, V115A (Fc fusion) WPPPGTGGIVAQAPTQVTGFLGDSVMLPCYLQVPNMEVTHVSQLTWARHGEPGSMAVFHQTQGPSYSESKRLEFVAARPGAELRNASLRMSALRVEDEGNYTCLFVLFPQGSRSADIWLRVLGSGGGGSEPKSSDKTHTCPPCPAPEAEGAPSVFLFPPKPKDTLMISRTPEVTCVVVDVSHEDPEVKFNWYVDGVEVHNAKTKPREEQYNSTYRVVSVLTVLHQDWLNGKEYKCKVSNKALPAPIEKTISKAKGQPREPQVYTLPPSRDELTKNQVSLTCLVKGFYPSDIAVEWESNGQPENNYKTTPPVLDSDGSFFLYSKLTVDKSRWQQGNVFSCSVMHEALHNHYTQKSLSLSPGK | 8.4 fold
3 | variant CD155 IgV-Fc P18S, L21M, Y30F, N35D, R84W, F91S, T107M, D116G (Fc fusion) WPPPGTGDVVVQAPTQVSGFMGDSVTLPCFLQVPDMEVTHVSQLTWARHGESGSMAVFHQTQGPSYSESKRLEFVAARLGAELWNASLRMSGLRVEDEGNYTCLFVMFPQGSRSVGIWLRVLGSGGGGSEPKSSDKTHTCPPCPAPEAEGAPSVFLFPPKPKDTLMISRTPEVTCVVVDVSHEDPEVKFNWYVDGVEVHNAKTKPREEQYNSTYRVVSVLTVLHQDWLNGKEYKCKVSNKALPAPIEKTISKAKGQPREPQVYTLPPSRDELTKNQVSLTCLVKGFYPSDIAVEWESNGQPENNYKTTPPVLDSDGSFFLYSKLTVDKSRWQQGNVFSCSVMHEALHNHYTQKSLSLSPGK | -2.2 fold
4 | variant CD155 IgV-Fc P18T, W46C, H49R, S65A, S67V, A76T, L79P, S87T, L104M (Fc fusion) WPPPGTGDVVVQAPTQVTGFLGDSVTLPCYLQVPNMEVTHVSQLTCARRGESGSMAVFHQTQGPAYVESKRLEFVTARPGAELRNATLRMFGLRVEDEGNYTCMFVTFPQGSRSVDIWLRVLGSGGGGSEPKSSDKTHTCPPCPAPEAEGAPSVFLFPPKPKDTLMISRTPEVTCVVVDVSHEDPEVKFNWYVDGVEVHNAKTKPREEQYNSTYRVVSVLTVLHQDWLNGKEYKCKVSNKALPAPIEKTISKAKGQPREPQVYTLPPSRDELTKNQVSLTCLVKGFYPSDIAVEWESNGQPENNYKTTPPVLDSDGSFFLYSKLTVDKSRWQQGNVFSCSVMHEALHNHYTQKSLSLSPGK | -3.4 fold
5 | variant CD155 IgV-Fc P18F, E51V, S54G, Q60R, L79Q, E82G, S87T, M90I, F91S, G92R, T107M (Fc fusion) WPPPGTGDVVVQAPTQVFGFLGDSVTLPCYLQVPNMEVTHVSQLTWARHGVSGGMAVFHRTQGPSYSESKRLEFVAARQGAGLRNATLRISRLRVEDEGNYTCLFVMFPQGSRSVDIWLRVLGSGGGGSEPKSSDKTHTCPPCPAPEAEGAPSVFLFPPKPKDTLMISRTPEVTCVVVDVSHEDPEVKFNWYVDGVEVHNAKTKPREEQYNSTYRVVSVLTVLHQDWLNGKEYKCKVSNKALPAPIEKTISKAKGQPREPQVYTLPPSRDELTKNQVSLTCLVKGFYPSDIAVEWESNGQPENNYKTTPPVLDSDGSFFLYSKLTVDKSRWQQGNVFSCSVMHEALHNHYTQKSLSLSPGK | 5.8 fold
6 | variant CD155 IgV-Fc P18T, G19D, M36T, S54N, L79P, L83Q, F91S, T107M, F108Y (Fc fusion) WPPPGTGDVVVQAPTQVTDFLGDSVTLPCYLQVPNTEVTHVSQLTWARHGESGNMAVFHQTQGPSYSESKRLEFVAARPGAEQRNASLRMSGLRVEDEGNYTCLFVMYPQGSRSVDIWLRVLGSGGGGSEPKSSDKTHTCPPCPAPEAEGAPSVFLFPPKPKDTLMISRTPEVTCVVVDVSHEDPEVKFNWYVDGVEVHNAKTKPREEQYNSTYRVVSVLTVLHQDWLNGKEYKCKVSNKALPAPIEKTISKAKGQPREPQVYTLPPSRDELTKNQVSLTCLVKGFYPSDIAVEWESNGQPENNYKTTPPVLDSDGSFFLYSKLTVDKSRWQQGNVFSCSVMHEALHNHYTQKSLSLSPGK | 0.3 fold
7 | variant CD155 IgV-Fc Q12H, P18T, L21S, G22S, V57A, Q62R, L79P, F91S, T107M (Fc fusion) WPPPGTGDVVVHAPTQVTGFSSDSVTLPCYLQVPNMEVTHVSQLTWARHGESGSMAAFHQTRGPSYSESKRLEFVAARPGAELRNASLRMSGLRVEDEGNYTCLFVMFPQGSRSVDIWLRVLGSGGGGSEPKSSDKTHTCPPCPAPEAEGAPSVFLFPPKPKDTLMISRTPEVTCVVVDVSHEDPEVKFNWYVDGVEVHNAKTKPREEQYNSTYRVVSVLTVLHQDWLNGKEYKCKVSNKALPAPIEKTISKAKGQPREPQVYTLPPSRDELTKNQVSLTCLVKGFYPSDIAVEWESNGQPENNYKTTPPVLDSDGSFFLYSKLTVDKSRWQQGNVFSCSVMHEALHNHYTQKSLSLSPGK | -4.1 fold
8 | variant CD155 IgV-Fc P18T, T39S, S52P, S54R, L79P, F91S, T107M (Fc fusion) WPPPGTGDVVVQAPTQVTGFLGDSVTLPCYLQVPNMEVSHVSQLTWARHGEPGRMAVFHQTQGPSYSESKRLEFVAARPGAELRNASLRMSGLRVEDEGNYTCLFVMFPQGSRSVDIWLRVLGSGGGGSEPKSSDKTHTCPPCPAPEAEGAPSVFLFPPKPKDTLMISRTPEVTCVVVDVSHEDPEVKFNWYVDGVEVHNAKTKPREEQYNSTYRVVSVLTVLHQDWLNGKEYKCKVSNKALPAPIEKTISKAKGQPREPQVYTLPPSRDELTKNQVSLTCLVKGFYPSDIAVEWESNGQPENNYKTTPPVLDSDGSFFLYSKLTVDKSRWQQGNVFSCSVMHEALHNHYTQKSLSLSPGK | -0.1 fold
9 | variant CD155 IgV-Fc P18T, D23G, Q60R, S67L, L79P, F91S, T107M, V115A (Fc fusion) WPPPGTGDVVVQAPTQVTGFLGGSVTLPCYLQVPNMEVTHVSQLTWARHGESGSMAVFHRTQGPSYLESKRLEFVAARPGAELRNASLRMSGLRVEDEGNYTCLFVMFPQGSRSADIWLRVLGSGGGGSEPKSSDKTHTCPPCPAPEAEGAPSVFLFPPKPKDTLMISRTPEVTCVVVDVSHEDPEVKFNWYVDGVEVHNAKTKPREEQYNSTYRVVSVLTVLHQDWLNGKEYKCKVSNKALPAPIEKTISKAKGQPREPQVYTLPPSRDELTKNQVSLTCLVKGFYPSDIAVEWESNGQPENNYKTTPPVLDSDGSFFLYSKLTVDKSRWQQGNVFSCSVMHEALHNHYTQKSLSLSPGK | 8.6 fold
10 | variant CD155 IgV-Fc P18S, P34S, E51V, L79P, F91S, G111R (Fc fusion) WPPPGTGDVVVQAPTQVSGFLGDSVTLPCYLQVSNMEVTHVSQLTWARHGVSGSMAVFHQTQGPSYSESKRLEFVAARPGAELRNASLRMSGLRVEDEGNYTCLFVTFPQRSRSVDIWLRVLGSGGGGSEPKSSDKTHTCPPCPAPEAEGAPSVFLFPPKPKDTLMISRTPEVTCVVVDVSHEDPEVKFNWYVDGVEVHNAKTKPREEQYNSTYRVVSVLTVLHQDWLNGKEYKCKVSNKALPAPIEKTISKAKGQPREPQVYTLPPSRDELTKNQVSLTCLVKGFYPSDIAVEWESNGQPENNYKTTPPVLDSDGSFFLYSKLTVDKSRWQQGNVFSCSVMHEALHNHYTQKSLSLSPGK | 2.1 fold

Results, then the binder that gave them:

Row | IL-2 luciferase reporter, Normalized Fold Change from CD155-ECD | Binder
11 | 1.1 fold | variant CD155 IgV-Fc V9I, P18S, S24P, H49Q, F58Y, Q60R, Q62K, L79P, F91S, T107M (Fc fusion) WPPPGTGDIVVQAPTQVSGFLGDPVTLPCYLQVPNMEVTHVSQLTWARQGESGSMAVYHRTKGPSYSESKRLEFVAARPGAELRNASLRMSGLRVEDEGNYTCLFVMFPQGSRSVDIWLRVLGSGGGGSEPKSSDKTHTCPPCPAPEAEGAPSVFLFPPKPKDTLMISRTPEVTCVVVDVSHEDPEVKFNWYVDGVEVHNAKTKPREEQYNSTYRVVSVLTVLHQDWLNGKEYKCKVSNKALPAPIEKTISKAKGQPREPQVYTLPPSRDELTKNQVSLTCLVKGFYPSDIAVEWESNGQPENNYKTTPPVLDSDGSFFLYSKLTVDKSRWQQGNVFSCSVMHEALHNHYTQKSLSLSPGK
12 | 3.1 fold | variant CD155 IgV-Fc V9L, P18L, M55V, S69L, L79P, A81E, F91S, T107M (Fc fusion) WPPPGTGDLVVQAPTQVLGFLGDSVTLPCYLQVPNMEVTHVSQLTWARHGESGSVAVFHQTQGPSYSELKRLEFVAARPGEELRNASLRMSGLRVEDEGNYTCLFVMFPQGSRSVDIWLRVLGSGGGGSEPKSSDKTHTCPPCPAPEAEGAPSVFLFPPKPKDTLMISRTPEVTCVVVDVSHEDPEVKFNWYVDGVEVHNAKTKPREEQYNSTYRVVSVLTVLHQDWLNGKEYKCKVSNKALPAPIEKTISKAKGQPREPQVYTLPPSRDELTKNQVSLTCLVKGFYPSDIAVEWESNGQPENNYKTTPPVLDSDGSFFLYSKLTVDKSRWQQGNVFSCSVMHEALHNHYTQKSLSLSPGK
13 | -3.4 fold | variant CD155 IgV-Fc V10F, T15S, P18L, R48Q, L79P, F91S, T107M, V115M (Fc fusion) WPPPGTGDVFVQAPSQVLGFLGDSVTLPCYLQVPNMEVTHVSQLTWAQHGESGSMAVFHQTQGPSYSESKRLEFVAARPGAELRNASLRMSGLRVEDEGNYTCLFVMFPQGSRSMDIWLRVLGSGGGGSEPKSSDKTHTCPPCPAPEAEGAPSVFLFPPKPKDTLMISRTPEVTCVVVDVSHEDPEVKFNWYVDGVEVHNAKTKPREEQYNSTYRVVSVLTVLHQDWLNGKEYKCKVSNKALPAPIEKTISKAKGQPREPQVYTLPPSRDELTKNQVSLTCLVKGFYPSDIAVEWESNGQPENNYKTTPPVLDSDGSFFLYSKLTVDKSRWQQGNVFSCSVMHEALHNHYTQKSLSLSPGK
14 | 3 fold | variant CD155 IgV-Fc V9I, P18F, A47E, G50S, E68G, L79P, F91S, T107M (Fc fusion) WPPPGTGDIVVQAPTQVFGFLGDSVTLPCYLQVPNMEVTHVSQLTWERHSESGSMAVFHQTQGPSYSGSKRLEFVAARPGAELRNASLRMSGLRVEDEGNYTCLFVMFPQGSRSVDIWLRVLGSGGGGSEPKSSDKTHTCPPCPAPEAEGAPSVFLFPPKPKDTLMISRTPEVTCVVVDVSHEDPEVKFNWYVDGVEVHNAKTKPREEQYNSTYRVVSVLTVLHQDWLNGKEYKCKVSNKALPAPIEKTISKAKGQPREPQVYTLPPSRDELTKNQVSLTCLVKGFYPSDIAVEWESNGQPENNYKTTPPVLDSDGSFFLYSKLTVDKSRWQQGNVFSCSVMHEALHNHYTQKSLSLSPGK
